Measurements reported in US11325966.

Experiments:
Test in all cases: cell-based or functional assay
[1] = molecular target: HIV-1 Env of pseudovirus SC05_8C11_2344 (HIV-1)
[2] = molecular target: HIV-1 Env of pseudovirus 1056_10_TA11_1826 (HIV-1)
[3] = molecular target: HIV-1 Env of pseudovirus 1006_11_C3_1601 (HIV-1)
[4] = molecular target: HIV-1 Env of pseudovirus 3365.v2.c2 (HIV-1)
[5] = molecular target: HIV-1 Env of pseudovirus BJOX028000.10.3 (HIV-1)
[6] = molecular target: HIV-1 Env of pseudovirus R1166.c01 (HIV-1)
[7] = molecular target: HIV-1 Env of pseudovirus 231965.c01 (HIV-1)
[8] = molecular target: HIV-1 Env of pseudovirus Ce1086_B2 (HIV-1)
[9] = molecular target: HIV-1 Env of pseudovirus WITO4160.33 (HIV-1)
[10] = molecular target: HIV-1 Env of pseudovirus Ce2060_G9 (HIV-1)
[11] = molecular target: HIV-1 Env of pseudovirus Du422.1 (HIV-1)
[12] = molecular target: HIV-1 Env of pseudovirus ZM214M.PL15 (HIV-1)
[13] = molecular target: HIV-1 Env of pseudovirus Q842.d12 (HIV-1)
[14] = molecular target: HIV-1 Env of pseudovirus T257-31 (HIV-1)
[15] = molecular target: HIV-1 Env of pseudovirus C4118.c09 (HIV-1)
[16] = molecular target: HIV-1 Env of pseudovirus Ce704809221_1B3 (HIV-1)
[17] = molecular target: HIV-1 Env of pseudovirus 249M B10 (HIV-1)
[18] = molecular target: HIV-1 Env of pseudovirus HIV-16845-2.22 (HIV-1)
[19] = molecular target: HIV-1 Env of pseudovirus 191955_A11 (HIV-1)
[20] = molecular target: HIV-1 Env of pseudovirus X1632_S2_B10 (HIV-1)
[21] = molecular target: HIV-1 Env of pseudovirus CNE19 (HIV-1)
[22] = molecular target: HIV-1 Env of pseudovirus ZM233M.PB6 (HIV-1)
[23] = molecular target: HIV-1 Env of pseudovirus T251-18 (HIV-1)
[24] = molecular target: HIV-1 Env of pseudovirus ZM197M.PB7 (HIV-1)
[25] = molecular target: HIV-1 Env of pseudovirus CNE30 (HIV-1)
[26] = molecular target: HIV-1 Env of pseudovirus Du172.17 (HIV-1)
[27] = molecular target: HIV-1 Env of pseudovirus ZM249M.PL1 (HIV-1)
[28] = molecular target: HIV-1 Env of pseudovirus QH0692.42 (HIV-1)
[29] = molecular target: HIV-1 Env of pseudovirus Q461.e2 (HIV-1)
[30] = molecular target: HIV-1 Env of pseudovirus Q23.17 (HIV-1)
[31] = molecular target: HIV-1 Env of pseudovirus C2101.c01 (HIV-1)
[32] = molecular target: HIV-1 Env of pseudovirus THRO4156.18 (HIV-1)
[33] = molecular target: HIV-1 Env of pseudovirus Ce0682_E4 (HIV-1)
[34] = molecular target: HIV-1 Env of pseudovirus BJOX025000.01.1 (HIV-1)
[35] = molecular target: HIV-1 Env of pseudovirus CNE21 (HIV-1)
[36] = molecular target: HIV-1 Env of pseudovirus 1394C9G1(Rev-) (HIV-1)
[37] = molecular target: HIV-1 Env of pseudovirus T255-34 (HIV-1)
[38] = molecular target: HIV-1 Env of pseudovirus C3347.c11 (HIV-1)
[39] = molecular target: HIV-1 Env of pseudovirus 231966.c02 (HIV-1)

B1: 10-1074 (antibody, V domains shown)
VH: QVQLQESGPGLVKPSETLSVTCSVSGDSMNNYYWTWIRQSPGKGLEWIGYISDRESATYNPSLNSRVVISRDTSKNQLSLKLNSVTPADTAVYYCATARRGQRIYGVVSFGEFFYYYSMDVWGKGTTVTVSS
VL: SYVRPLSVALGETARISCGRQALGSRAVQWYQHRPGQAPILLIYNNQDRPSGIPERFSGTPDINFGTRATLTISGVEAGDEADYYCHMWDSRSGFSWSFGGATRLTVL
In the case of B1, the IC50 in TZM-bl assay [1] is reported as 0.017 µg/mL, the IC80 in TZM-bl assay [1] is reported as 0.048 µg/mL and the IC50 in TZM-bl assay [2] is reported as 0.038 µg/mL. It also gave an IC80 in TZM-bl assay [2] of 0.168 µg/mL, an IC50 in TZM-bl assay [3] of 0.002 µg/mL and an IC80 in TZM-bl assay [3] of 0.006 µg/mL. It also gave an IC50 in TZM-bl assay [4] of 0.057 µg/mL, an IC80 in TZM-bl assay [4] of 0.2 µg/mL and an IC50 in TZM-bl assay [5] greater than 10 µg/mL. It also gave an IC80 in TZM-bl assay [5] greater than 10 µg/mL, an IC50 in TZM-bl assay [6] greater than 10 µg/mL and an IC80 in TZM-bl assay [6] greater than 10 µg/mL. The IC50 in TZM-bl assay [7] was greater than 10 µg/mL, the IC80 in TZM-bl assay [7] was greater than 10 µg/mL and the IC50 in TZM-bl assay [8] was greater than 10 µg/mL. The IC80 in TZM-bl assay [8] was greater than 10 µg/mL, the IC50 in TZM-bl assay [9] was 0.111 µg/mL and the IC80 in TZM-bl assay [9] was 0.828 µg/mL. The IC50 in TZM-bl assay [10] was greater than 10 µg/mL, the IC80 in TZM-bl assay [10] was greater than 10 µg/mL and the IC50 in TZM-bl assay [11] was 0.047 µg/mL. The IC80 in TZM-bl assay [11] was 0.113 µg/mL, the IC50 in TZM-bl assay [12] was 0.415 µg/mL and the IC80 in TZM-bl assay [12] was 2.97 µg/mL. For the same binder, the IC50 in TZM-bl assay [13] was greater than 10 µg/mL, the IC80 in TZM-bl assay [13] was greater than 10 µg/mL and the IC50 in TZM-bl assay [14] was greater than 10 µg/mL. It also gave an IC80 in TZM-bl assay [14] greater than 10 µg/mL, an IC50 in TZM-bl assay [15] greater than 10 µg/mL and an IC80 in TZM-bl assay [15] greater than 10 µg/mL. It also gave an IC50 in TZM-bl assay [16] of 0.084 µg/mL, an IC80 in TZM-bl assay [16] of 0.395 µg/mL and an IC50 in TZM-bl assay [17] greater than 10 µg/mL. It also gave an IC80 in TZM-bl assay [17] greater than 10 µg/mL, an IC50 in TZM-bl assay [18] of 0.727 µg/mL and an IC80 in TZM-bl assay [18] of 3.93 µg/mL. The IC50 in TZM-bl assay [19] was greater than 10 µg/mL, the IC80 in TZM-bl assay [19] was greater than 10 µg/mL and the IC50 in TZM-bl assay [20] was greater than 10 µg/mL. The IC80 in TZM-bl assay [20] was greater than 10 µg/mL, the IC50 in TZM-bl assay [21] was 0.075 µg/mL and the IC80 in TZM-bl assay [21] was greater than 10 µg/mL. The IC50 in TZM-bl assay [22] was 0.058 µg/mL, the IC80 in TZM-bl assay [22] was 0.371 µg/mL and the IC50 in TZM-bl assay [23] was 0.399 µg/mL. For the same binder, the IC80 in TZM-bl assay [23] was 2.29 µg/mL, the IC50 in TZM-bl assay [24] was greater than 10 µg/mL and the IC80 in TZM-bl assay [24] was greater than 10 µg/mL. It also gave an IC50 in TZM-bl assay [25] of 0.261 µg/mL, an IC80 in TZM-bl assay [25] of 0.678 µg/mL and an IC50 in TZM-bl assay [26] of 0.049 µg/mL. For the same binder, the IC80 in TZM-bl assay [26] was 0.194 µg/mL, the IC50 in TZM-bl assay [27] was greater than 10 µg/mL and the IC80 in TZM-bl assay [27] was greater than 10 µg/mL. It also gave an IC50 in TZM-bl assay [28] of 0.106 µg/mL, an IC80 in TZM-bl assay [28] of 0.383 µg/mL and an IC50 in TZM-bl assay [29] greater than 10 µg/mL. It also gave an IC80 in TZM-bl assay [29] greater than 10 µg/mL, an IC50 in TZM-bl assay [30] of 0.005 µg/mL and an IC80 in TZM-bl assay [30] of 0.015 µg/mL. The IC50 in TZM-bl assay [31] was greater than 10 µg/mL, the IC80 in TZM-bl assay [31] was greater than 10 µg/mL and the IC50 in TZM-bl assay [32] was greater than 10 µg/mL. It also gave an IC80 in TZM-bl assay [32] greater than 10 µg/mL, an IC50 in TZM-bl assay [33] greater than 10 µg/mL and an IC80 in TZM-bl assay [33] greater than 10 µg/mL. For the same binder, the IC50 in TZM-bl assay [34] was greater than 10 µg/mL, the IC80 in TZM-bl assay [34] was greater than 10 µg/mL and the IC50 in TZM-bl assay [35] was 0.047 µg/mL. For the same binder, the IC80 in TZM-bl assay [35] was 0.124 µg/mL, the IC50 in TZM-bl assay [36] was 0.031 µg/mL and the IC80 in TZM-bl assay [36] was 0.093 µg/mL. For the same binder, the IC50 in TZM-bl assay [37] was greater than 10 µg/mL, the IC80 in TZM-bl assay [37] was greater than 10 µg/mL and the IC50 in TZM-bl assay [38] was greater than 10 µg/mL. The IC80 in TZM-bl assay [38] was greater than 10 µg/mL, the IC50 in TZM-bl assay [39] was greater than 10 µg/mL and the IC80 in TZM-bl assay [39] was greater than 10 µg/mL.
